Fewer inactive variants are shown than the library holds.
B1: TPR 5TU (parent)
chain: GGAUCUUCUCGAUCUAACAAAAAAGACAAAUCUGCCACAAAGCUUGAGAGCAUCUUCGGAUGCAGAGGCGGCAGCCUUCGGUGGCGCGAUAGCGCCAACGUUCUCAACUAUGACACGCAAAACGCGUGCUCCGUUGAAUGGAGUUUAUCAUG

Variants of: B1
Test: polymerase ribozyme fitness, log enrichment relative to wild type (log ratio); higher = more active; in vitro selection for triplet polymerase activity
How it was run: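 A single round of triplicate in vitro selection, including frozen incubation at −7 °C, was applied to PCR-built, transcribed mutant libraries of each subunit of a heterodimeric triplet polymerase ribozyme. Illumina sequencing of input and output libraries retained genotypes with ≥10 input reads and ≥1 read per output. Fitness is the base-2 logarithm of genotype enrichment divided by wild-type enrichment, from inverse-variance-weighted replicate averages.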

Row | Variant | polymerase ribozyme fitness (log ratio)
1 | GGAUCUUCUCGAUCUAACAAAAAAGAGAAAUCUGCCGCAAAGCUUGAGAGCAUCUUCGGAUGCAGAGGCGGAAGCCUUCGGUGGCGCGAUAGCGCCAACGUUCUAAACUAUGACACGCAAAACGCGUGCUCCGUUGAAUGGAGUUUAUCAUG [C27G A37G C72A C105A] | -4.13
2 | GGAUCUUCUCGAUCUAACAAAAAAGAGGAAUCUGCCACAAAGCUUGAGAGCAUCUUCGGAUGCAGAGGGGGCAGCCUUCGGUGGCGCGAUAGGGUCAACGUUCUCAACUAUGACACGCAAAACGCGUGCUCCGUUGAAUGGAGUUUAUCAUG [C27G A28G C69G C93G C95U] | ≤ -4.2
3 | GGAUCUUCUCGAUCUAACAAAAAAGAAAAAUCUGCCACAAAGCUUAAGAGCAACUGCGGAUGCAGAGGCGGCAGCCUUCGGUGGCGCGAUCGCGCCAACGUUCUCCACUGUGACACGCAAAACGCGUGCUCCGUUGAGUGGAGUUUAUCAUG [C27A G46A U53A U56G A91C A106C A110G A138G] | ≤ -4.2
4 | GGAUCUUCUCGAUCUAACAAAAAAGAAAAAUCCGCCACAAAGCUUGAGAGCAUCUUCGGAUGCAGAGGCGGCAGCCUUCGGUGGAGCGAUAGCGCCAACGUUCUCGACUAUGACACGCAAAACGCGUGCUCCGUUGAAUGGAGAUUAUCACG [C27A U33C C85A A106G U144A U151C] | ≤ -4.2
5 | GGAUCUUCUCGAUCUAACAAAAAAGAAAAAUCUGCCACAAAGCUUGAGAGCAUCUUCGGAUGCAGAGGCGGCAGCCUUCGGUGGCGCGAUAGCGCCAACGUUCUCAACUAUGACACACAAAACGCGUGCUCCGUUGAAUGGAGUUUAUCAUG [C27A G117A] | -3.86
6 | GGAUCUUCUCGAUCUAACAAAAAAGAAAAAUCUGCCACAAAGCUGAAGAGCAUCUUCGGUUGCAGAGGCGGCAGCCUUCGGUGGCGCGAUAGCGGCAACGUUCUCAACUAUGACACGCAAAACUCGUGCUCCGUUGAAUGGAGUUUAUCAUG [C27A U45G G46A A60U C95G G124U] | ≤ -4.2
7 | GGAUCUUCUCGAUCUAACAAAAAAGAAAAAUCUGCCACAAAGCUUGAGAGCAUCUUCGAAUGCAGAGGCGGCAGCCUUCGGUGGUGCGAUAGCGCCAACGUUCUCAACUAUGACACGCAAAACGCGUGCUCCGAUGAAUGGAGUUUAUCAUG [C27A G59A C85U U134A] | ≤ -4.2
8 | GGAUCUUCUCGAUCUAACAAAAAAGAAAAAUCUGCCACAAAGCUUGAGAGCAUCGUCGGAUGCAGUGGCGGUAGCCUGUGGUGGCGCGAUCGCGCCAACGUUCUUAACUAUGACACGCAAAACGCGUGCUCCGUUGAAUGGAGUUUAUCAUG [C27A U55G A66U C72U U78G C79U A91C C105U] | ≤ -4.2
9 | GGAUCUUCUCGAUCUAACAAAAAAGAAAAAUCUGCCACAAAGCUUGAGAGCAUCUUCGGAUGCAGAGGCGGCAGCCUUCGGUGGAUCGAUCGCGCCAACGAUCUCAACUAUGACACGGAAAACGCGUGCUCCGUUGAAUGGAGUUUAUCAUG [C27A C85A G86U A91C U101A C118G] | ≤ -4.2
10 | GGAUCUUCUCGAUCUAACAAAAAAGAGACAUCUGCCACAAAGCUUGAGAGAAUCUUCGGAUGCAGAGGCGGCUGCCUUCGGUAGCGCGAUAGCGCCUACGUUCUCAACUAUGACACGCAAAACGCGUGCUCCGUUGAAUGGAGUUUAUCAAG [C27G A29C C51A A73U G83A A97U U151A] | ≤ -4.2
11 | GGAUCUUCUCGAUCUAACAAAAAAGAAAAAUCUGCCACAAAGCUUGAGAGCAUCUUCGGAUGCAGAGGCGGCAACGUUCGGUGGCCCGAUAGCGCCAACGUUCUCAACUAUGACACGCAAAACGCGUAUUCCGUUGAAUGGAGCUUAUCAUG [C27A G74A C76G G86C G128A C129U U144C] | ≤ -4.2
12 | GGAUCUUCUCGAUCUAACAAAAAAGAAAAAUCUGCCACAAAGCUUGAGAGCAUCAUCGGAUGCAGAGGCGACAGCCCUCGGUGGCGCGAUAGCGUCAACGUUCUCAACUAUGCCACGCAAAACGCGUGCUCCGUUGAAUGGAGUUUAUGAUG [C27A U55A G71A U77C C95U A113C C149G] | ≤ -4.2
13 | GGAUCUUCUCGAUCUAACAAAAAAGAAAAAUCUGCCACAAAGCUUGAGAGCAUCUUCGGAUGCAGAGGCGGCAGCCUUCGGGGGCGGGAUAGCACCAACGUUCUCAACUAUGACACGCAAAACGCGUGCUCCGUAGAAUGGAGUUUAUCAUG [C27A U82G C87G G94A U135A] | ≤ -4.2
14 | GGAUCUUCUCGAUCUAACAAAAAAGAAAAAUCUGCCACAAAGCAUGAAAGCAUCUUCGGAUGCAGAGGCGGCAGCCUUCGGUGGCGCGAUAGCGCCAACGUUCUCAACUAUGACACGCAAAACGCGUGCUCCGUUGAAUGGAGUUUAUCAUG [C27A U44A G48A] | ≤ -4.2
15 | GGAUCUUCUCGAUCUAACAAAAAAGAAAAAUCUGCCACAAAGCUUGAGAGCAUCUUCGGAUGCAGAGGCGGCAGCCUUCGGUGGCUCGAUAGCGCCAACGUUCUCAACUAUGACACGCAAAACGCGUGCUCCGUUGAAUGGAGAUUAUCAUG [C27A G86U U144A] | ≤ -4.2
16 | GGAUCUUCUCGAUCUAACAAAAAAGAGCAAUCUGCCACAAAGCUUGAAAGCAUCAUCGGAUGCAGAGCCGGCAGCCUUCGGUGGCGUGAUAGCGCCAACGUUCUCAAGUAUGACACGCAAAACGCGUGCUCCGUUGAAUGGAGUUUAUCAUG [C27G A28C G48A U55A G68C C87U C108G] | ≤ -4.2
17 | GGAUCUUCUCGAUCUAACAAAAAAGAAAAAUCUGCCACAAAGCUUGAGACCAUCUUCGGAUGCAGAGGCGGCAGCCUUCAGUGGCGCGAUAGCGUCAACGUUCUCAACUAUGACACGCAAAACGCGUGCUCCGUUGAAUGGAGUUUAUCAUG [C27A G50C G80A C95U] | ≤ -4.2
18 | GGAUCUUCUCGAUCUAACAAAAAAGAGAAAUCUGCCUCACAGCUUGAGAGCAUCUUCGGAUGCGGAGGCGGCAGCCUUCGAUGGCGCGAUAGCGGCAACGUUCUCAACUAUGACACGCAAAACGCGUGCUCCGUUGACUGGAGUUUAUCAUG [C27G A37U A40C A64G G81A C95G A138C] | -3.88
19 | GGAUCUUCUCGAUCUAACAAAAAAGAGAAAUCUGCCACCAAGCUUGAGAGCAUCUUCGCAUGCAGAGGCGGCAGCCUUCGGUGGGGCGAUAGCGCCAACGUUCUGAACUAUGACACGCAAAACGCGUGCUCCGUUGAAUGGAGUUUAUCAUG [C27G A39C G59C C85G C105G] | ≤ -4.2

— the RNAGym collection of RNA variant scans (doi:10.1073/pnas.2313332121)
